Experimental data reported in patent publication US20170190749A1.

Tests used:
[1] = target: T1, PhoCle0.1 large fragment after photocleavage (remainder of the protein); assay: spectroscopic and SDS-PAGE analyses of the protein before and after illumination
T1 chain: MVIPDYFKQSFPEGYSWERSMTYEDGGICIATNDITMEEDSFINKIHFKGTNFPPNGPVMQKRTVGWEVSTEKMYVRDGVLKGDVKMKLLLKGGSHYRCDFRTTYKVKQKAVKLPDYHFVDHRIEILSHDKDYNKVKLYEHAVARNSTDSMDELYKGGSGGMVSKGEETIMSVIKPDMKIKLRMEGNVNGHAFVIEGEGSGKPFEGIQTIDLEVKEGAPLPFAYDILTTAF

[2] = target: T2, PhoCle0.3 large fragment after photocleavage (~20 kDa remainder of the PhoCle domain); assay: decay of red fluorescence/absorbance following photocleavage
T2 chain: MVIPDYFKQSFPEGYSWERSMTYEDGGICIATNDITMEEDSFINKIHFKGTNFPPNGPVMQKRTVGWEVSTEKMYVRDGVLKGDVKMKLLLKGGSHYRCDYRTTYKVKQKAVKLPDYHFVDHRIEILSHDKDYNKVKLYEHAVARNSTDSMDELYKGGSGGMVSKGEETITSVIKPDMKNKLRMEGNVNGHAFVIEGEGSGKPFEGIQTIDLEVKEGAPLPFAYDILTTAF

t0.5 of spontaneous dissociation after photocleavage [1] | t0.5 of peptide dissociation after photocleavage [2] | Binder
500 s |  | HYGNRVFTKYPR (modifications not checked) [PhoCle0.1 small chromophore-containing peptide fragment after photocleavage]
 | 120 s | HYGNRVFTKYPR (modifications not checked) [PhoCle0.3 small chromophore-containing peptide fragment after photocleavage]
